PMC2756588

Columns and labels:
Assay in all cases: SPOT array
[1] = biological target: T1, Fus1, P11710; conditions: median of control spots 1200
T1 sequence (P11710 432-512, looked up): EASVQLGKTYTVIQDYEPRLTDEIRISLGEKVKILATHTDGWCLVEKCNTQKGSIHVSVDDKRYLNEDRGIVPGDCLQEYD

[2] = biological target: T2, Bzz1-1, P38822; conditions: median of control spots 4446
T2 sequence (P38822 478-572, looked up): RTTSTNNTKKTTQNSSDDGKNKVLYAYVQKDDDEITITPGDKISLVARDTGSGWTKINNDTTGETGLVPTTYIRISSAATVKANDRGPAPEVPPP

[3] = biological target: T3, Bbc1, P47068; conditions: median of control spots 796
T3 sequence (P47068 1-78, looked up): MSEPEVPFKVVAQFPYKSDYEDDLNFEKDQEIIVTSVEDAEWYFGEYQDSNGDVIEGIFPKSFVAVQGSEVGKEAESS

[4] = biological target: Sho1, P40073; conditions: median of control spots 1148
[5] = biological target: T4, Hof1, Q05080; conditions: median of control spots 4086
T4 sequence (Q05080 590-669, looked up): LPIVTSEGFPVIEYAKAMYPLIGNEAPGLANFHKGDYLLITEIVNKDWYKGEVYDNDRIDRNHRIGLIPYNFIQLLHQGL

[6] = biological target: Rvs167, P39743; conditions: median of control spots 2707
[7] = biological target: T5, Nbp2, Q12163; conditions: median of control spots 357
T5 sequence (Q12163 103-180, looked up): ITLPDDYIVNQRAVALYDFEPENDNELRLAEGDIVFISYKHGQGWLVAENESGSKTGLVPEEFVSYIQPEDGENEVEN

[8] = biological target: T6, Pin3, Q06449; conditions: median of control spots 2171
T6 sequence (Q06449 53-122, looked up): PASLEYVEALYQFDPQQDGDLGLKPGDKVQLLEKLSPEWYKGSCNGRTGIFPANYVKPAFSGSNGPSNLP

[9] = biological target: T7, Hse1, P38753; conditions: median of control spots 1727
T7 sequence (P38753 208-285, looked up): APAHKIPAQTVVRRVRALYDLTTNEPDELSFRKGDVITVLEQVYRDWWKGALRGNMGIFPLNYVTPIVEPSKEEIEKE

[10] = biological target: Bem1-2, P29366; conditions: median of control spots 4347
[11] = biological target: T8, Cdc25, P04821; conditions: median of control spots 969
T8 sequence (P04821 50-136, looked up): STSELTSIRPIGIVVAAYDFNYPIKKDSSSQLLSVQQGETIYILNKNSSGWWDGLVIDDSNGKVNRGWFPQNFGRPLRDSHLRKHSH

[12] = biological target: T9, Boi2, P39969; conditions: median of control spots 1161
T9 sequence (P39969 32-116, looked up): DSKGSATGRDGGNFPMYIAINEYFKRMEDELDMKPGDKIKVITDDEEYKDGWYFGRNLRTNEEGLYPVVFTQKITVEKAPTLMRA

[13] = biological target: T10, Lsb1, P53281; conditions: median of control spots 388
T10 sequence (P53281 45-122, looked up): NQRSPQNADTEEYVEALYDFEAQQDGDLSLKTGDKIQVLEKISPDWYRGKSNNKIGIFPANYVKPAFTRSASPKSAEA

[14] = biological target: T11, Sla1-3, P32790; conditions: median of control spots 5475
T11 sequence (P32790 344-424, looked up): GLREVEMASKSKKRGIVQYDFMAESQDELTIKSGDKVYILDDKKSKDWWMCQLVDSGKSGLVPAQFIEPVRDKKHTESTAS

[15] = biological target: Myo3, P36006; conditions: median of control spots 468
[16] = biological target: T12, Lsb3, P43603; conditions: median of control spots 406
T12 sequence (P43603 385-451, looked up): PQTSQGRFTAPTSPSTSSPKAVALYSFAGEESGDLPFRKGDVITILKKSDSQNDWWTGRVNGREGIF

[17] = biological target: T13, Cyk3, Q07533; conditions: median of control spots 1451
T13 sequence (Q07533 1-83, looked up): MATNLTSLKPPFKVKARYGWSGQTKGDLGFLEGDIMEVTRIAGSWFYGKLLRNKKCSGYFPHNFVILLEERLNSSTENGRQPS

[18] = biological target: T14, Myo5, Q04439; conditions: median of control spots 471
T14 sequence (Q04439 1072-1160, looked up): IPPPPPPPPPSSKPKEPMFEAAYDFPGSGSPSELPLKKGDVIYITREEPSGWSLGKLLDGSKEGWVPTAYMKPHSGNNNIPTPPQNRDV

[19] = biological target: T15, Bzz1-2, P38822; conditions: median of control spots 4538
T15 sequence (P38822 568-633, looked up): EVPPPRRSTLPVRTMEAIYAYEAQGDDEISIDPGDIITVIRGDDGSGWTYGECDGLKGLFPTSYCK

[20] = biological target: T16, Bud14, P27637; conditions: median of control spots 956
T16 sequence (P27637 247-328, looked up): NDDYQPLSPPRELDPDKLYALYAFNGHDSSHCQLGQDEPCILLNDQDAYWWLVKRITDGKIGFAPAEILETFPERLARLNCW

[21] = biological target: T17, Pex13, P80667; conditions: median of control spots 1341
T17 sequence (P80667 295-386, looked up): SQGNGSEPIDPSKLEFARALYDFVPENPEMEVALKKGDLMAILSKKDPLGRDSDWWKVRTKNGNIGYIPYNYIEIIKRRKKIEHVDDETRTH

[22] = biological target: T18, Abp1, P15891; conditions: median of control spots 935
T18 sequence (P15891 535-592, looked up): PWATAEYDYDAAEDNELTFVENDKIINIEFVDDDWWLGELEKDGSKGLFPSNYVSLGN

[23] = biological target: Bem1-1, P29366; conditions: median of control spots 4282
[24] = biological target: T19, Sla1-2, P32790; conditions: median of control spots 712
T19 sequence (P32790 60-140, looked up): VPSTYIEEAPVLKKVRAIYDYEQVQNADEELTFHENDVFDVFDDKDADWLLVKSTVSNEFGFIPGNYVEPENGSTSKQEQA

[25] = biological target: T20, Lsb4, P32793; conditions: median of control spots 397
T20 sequence (P32793 402-468, looked up): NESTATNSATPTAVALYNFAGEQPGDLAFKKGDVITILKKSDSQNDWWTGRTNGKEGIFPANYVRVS

[26] = biological target: GST; conditions: median of control spots 978
[27] = biological target: T21, Boi1, P38041; conditions: median of control spots 1162
T21 sequence (P38041 1-86, looked up): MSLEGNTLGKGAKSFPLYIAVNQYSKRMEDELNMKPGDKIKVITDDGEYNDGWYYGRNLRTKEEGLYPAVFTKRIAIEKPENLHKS

Sho1, P40073, sequence (P40073 287-367): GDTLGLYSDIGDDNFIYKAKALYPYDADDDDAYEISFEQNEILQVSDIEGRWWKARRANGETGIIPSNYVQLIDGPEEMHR
Bem1-2, P29366, sequence (P29366 139-227): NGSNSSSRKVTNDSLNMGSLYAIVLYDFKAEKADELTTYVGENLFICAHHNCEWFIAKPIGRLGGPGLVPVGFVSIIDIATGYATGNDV
Rvs167, P39743, sequence (P39743 419-482): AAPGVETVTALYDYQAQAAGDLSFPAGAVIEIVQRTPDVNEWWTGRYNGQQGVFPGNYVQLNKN
Bem1-1, P29366, sequence (P29366 55-141): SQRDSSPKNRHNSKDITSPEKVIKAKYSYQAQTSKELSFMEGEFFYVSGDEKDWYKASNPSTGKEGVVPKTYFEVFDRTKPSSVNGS

GATNNAPTLPKRKNP
SPOT intensity [1]: 2
SPOT intensity [2]: 0
SPOT intensity [3]: 6
SPOT intensity [4]: 2
SPOT intensity [5]: 0
SPOT intensity [6]: 2550
SPOT intensity [7]: 0
SPOT intensity [8]: 0
SPOT intensity [9]: 1
SPOT intensity [10]: 9
SPOT intensity [11]: 1
SPOT intensity [12]: 58
SPOT intensity [13]: 64
SPOT intensity [14]: 1
SPOT intensity [15]: 0
SPOT intensity [16]: 425
SPOT intensity [17]: 0
SPOT intensity [18]: 0
SPOT intensity [19]: 0
SPOT intensity [20]: 0
SPOT intensity [21]: 27
SPOT intensity [22]: 36
SPOT intensity [23]: 0
SPOT intensity [24]: 92
SPOT intensity [25]: 570
SPOT intensity [26]: 0
SPOT intensity [27]: 12

PALPSLPPPPLLNVD
SPOT intensity [1]: 0
SPOT intensity [2]: 2
SPOT intensity [3]: 0
SPOT intensity [4]: 83
SPOT intensity [5]: 6720
SPOT intensity [6]: 0
SPOT intensity [7]: 0
SPOT intensity [8]: 0
SPOT intensity [9]: 0
SPOT intensity [10]: 0
SPOT intensity [11]: 0
SPOT intensity [12]: 0
SPOT intensity [13]: 0
SPOT intensity [14]: 0
SPOT intensity [15]: 598
SPOT intensity [16]: 0
SPOT intensity [17]: 0
SPOT intensity [18]: 688
SPOT intensity [19]: 0
SPOT intensity [20]: 1
SPOT intensity [21]: 2
SPOT intensity [22]: 0
SPOT intensity [23]: 0
SPOT intensity [24]: 0
SPOT intensity [25]: 0
SPOT intensity [26]: 0
SPOT intensity [27]: 0

VQPTAAPATPPRHIS
SPOT intensity [1]: 13
SPOT intensity [2]: 0
SPOT intensity [3]: 2
SPOT intensity [4]: 0
SPOT intensity [5]: 0
SPOT intensity [6]: 12
SPOT intensity [7]: 0
SPOT intensity [8]: 0
SPOT intensity [9]: 0
SPOT intensity [10]: 0
SPOT intensity [11]: 2
SPOT intensity [12]: 0
SPOT intensity [13]: 45
SPOT intensity [14]: 5
SPOT intensity [15]: 0
SPOT intensity [16]: 251
SPOT intensity [17]: 0
SPOT intensity [18]: 0
SPOT intensity [19]: 0
SPOT intensity [20]: 0
SPOT intensity [21]: 0
SPOT intensity [22]: 0
SPOT intensity [23]: 2
SPOT intensity [24]: 0
SPOT intensity [25]: 251
SPOT intensity [26]: 0
SPOT intensity [27]: 0
